We go through 1 substance from publication PMC7299280.

The target in this experiment is SARS-CoV1-SΔ28 (SARS-CoV-1 spike protein truncated at the C terminus, on pseudovirions) (SARS-CoV-1).

In turn, CC6.33 (antibody) registered a neutralization IC50 of SARS-CoV-1 pseudovirus of 0.162 µg/mL.
